Measurements taken from the DeepSol protein solubility set.

Experiment: soluble on expression in E. coli; label from the status in PepcDB or PDB records

Sequence	soluble on expression in E. coli
MSAPLRVLVTGAAGQIGYSIVIRIADGTVFGKEQPVELVLLDVPQCSNILEGVVFELQDCALPTLFSVVAVTDEKSAFTGIDYAFLVGAMPRREGMERKDLLAANVKIFKSQGKALAEYAKPTTKVIVVGNPANTNAFIAAKYAAGKIPAKNFSAMTRLDHNRALAQLALKTGTTIGNVKNVIIWGNHSGTQFPDVTHATVNKNGTETDAYAAVGDNAFLQGPFIATVQKRGGVIIEKRKLSSAMSAAKAACDHIHDWHFGTKAGQFVSMAVPSDGSYGIPQGLIFSFPVTIEGGEWKIVQGLSFDDFAKGKIAATTKELEEERDDALKACDDANI	not soluble
MSSKFRTEDAWIIGQRMAARLDHEAYPLHKAAFFNDTHSIVQLLRAGRSLSEKDTHGNTALHIATMLGHREAIAILLANNAPVRIKNIDGWNPLMESVSYGDRQIITEMLRKLKTQTNEKMSRGKPHLMKMFQDLGDFYMEFKWDFQSWIPLLSRILPSDVCLIYKKGNLLRMDTTLADFSERNWERGDITFLFNVDAPPGEQLVVMDNKTKVFQRGRREESEAEIDEEVDVLMSTDIVNAHMSTKTVGFKQAYSGWVFKHAREEQMGDFPVNFYSVEGLKLTTRKRREHLTSDDVKKNKSILHSLTSGHTVNDDEFSVEPPTPKIATPTGRLPTTWEEYSGAAPGAPPQMGRPQIVKTNEKQFKALVGMSEEFPLSVDVLVDLLEVVAPFKHLDKLRRFCSARLPPGFPVCVEIPLLATIAAKVTFQKFQFTNDIQDKMFTIPTSYREDPTRFPDL	not soluble
MGSDKIHHHHHHMSYDEAFKTLLISSNAKLNLELNHLVIKQDENIAKLFLKDINIIVLESLQISISSALFNAFAKYKIILLTCDETHSINGVFTPFLGHFQSAKIAKEQMNVSAQKKAILWQKIIKNKILNQAFILKKHNKIEQSNELINLAKKVSLNDSKNIEAVAAALYFKTLFGTSFSRDELCFENSALNYGYAIIRACIIRAVCISGLLPWLGIKHDNIYNSFALCDDLIEVFRASVDDCVLKLKGESEFLSKDDKRALIGNLQSKINFDGQNYPLNRAINHYVANFKNALLYEDELKIVKFDD	not soluble
MSLKVRLEDVAKRLGVSVATVSRSLAGHPAISSETRGAVRAVASELGYRIPTQGRRGKKSSTKLIGVVVGALHNRFMTLLLTHLHDALQELGYQMTLVIDSMNDSQNLQALRPLIEGYLDGLIFATATLDSPVIAEMQRRAIPLVLVVRSVDDVRVDTVEIDNVHAGAVAAEHLYQLGHRRIGLVMGPQNTSTSRDRAKGALTYLADIGISSEAVTLMWSDYTTEAGYSSAMAIFNEADPVTAIVAGNDTIALGVLEAAARRAIKVPEQLSVIGFDDMPLAGSPLVALTSIRQPVRAMARTAARRLIDRIRAGGMGAPVHDVLPIQLVRRETTGPREGHHHHHH	soluble
HVYAFDIQESAVANTKERLGDMYQARTTLFHKSHDKIAESLPPETHGKVAAAVFNLGYLPGGDKSITTNGSSTIKAIEQLLSIMKDEGLIVLVVYHGHPEGKAEKNDVLEFCRDLDQQTARVLTYGFINQQNDPPFIVAIEKKAQISK	not soluble
MSLTEDLNKRVEQAAQGITPQTKPDERRRYLGSLRERVLVRLNNTEVKDPKLTALFLKHITDFKGYTILINGNITDDGFLGEVEAACSKEDIPFTLVNNETAKTGPEDTAILVVAKTAINHPRVEINQVYPPEMPKTELSAPSKKHESFWHHLFHKDEGHHHHHH	soluble
MDLGSFGRIPPQNIEAEQSVLGAILLDKEVLSSVTEIISSQDFYREDHREIFEAIMDLYEKGEPIDLITVAEQLKVRGSLEAVGGLEYLTNLASLVPTTANAKHYAKIVEEKSILRRLIKASSEIINMGYEAAEEVSYVLDKAEKSIFDVLQKRNTQGFALIKDVLIDTFNRLEELYNNKGYITGIPTGFVDLDYKTAGLQNSDLILIAARPAMGKTSFVLNIAQYAAIHAKVPVAIFSLEMSKEQLVNRMLCCEAMVDSQKMRTGKLEDSDWQKVARALGPLSEAPIYIDDTPGLSVAEIRAKCRRLKLEKNLGLVVIDYLQLMQGRGKSESRQQEISEISRSLKILAKEINVPVLTLSQLSRAPELRSDHRPILSDLRESGAIEQDADIVMFLYRDDYYNPDTEKKNIAEVIIAKHRNGSTGTVELAWLGQYTKFANLEKYRQ	not soluble
MRTRNMQDFEGPLPDLLESALTWVKQNAPTQNVYDSSGHMRKESVYPLPAVRELIANALVHRDLSPNSDGKWVEIRLCDDRLVISNPGGLRGVSVKQLESATLSKNAVNPRLYDIAKRVRTEGAGIQEVLRQTCQALLAKPQLIDTGVQFTAILYGASVFSEAELEWLRSIGGDGLTAVEKHLLVGLRKGESWHLSRILNEFSPITVAEAEKLMHGLKKRGFIESDNKTFTLGAHSENQAPRVEKEETTLAKITKNAPTIAHALELKPEQSFEELLRTTGLSQGQLRFALDKLQAVGLVVREGGWGVHGTTYHWSAQT	not soluble
MVWLANPERYGQMQYRYCGKSGLRLPALSLGLWHNFGHVNALESQRAILRKAFDLGITHFDLANNYGPPPGSAEENFGRLLREDFAAYRDELIISTKAGYDMWPGPYGSGGSRKYLLASLDQSLKRMGLEYVDIFYSHRVDENTPMEETASALAHAVQSGKALYVGISSYSPERTQKMVELLREWKIPLLIHQPSYNLLNRWVDKSGLLDTLQNNGVGCIAFTPLAQGLLTGKYLNGIPQDSRMHREGNKVRGLTPKMLTEANLNSLRLLNEMAQQRGQSMAQMALSWLLKDDRVTSVLIGASRAEQLEENVQALNNLTFSTKELAQIDQHIADGELNLWQASSDK	soluble
MGSDKIHHHHHHMSEILVLGGGMVGISTALELQARGHAVTVVDRKAPGQETSYGNAGLIQAEAAEPYAMPRALPEILGILSGRSNDVIWSLRGVLSQLPALWQYYRYSHPHRHLALSQPNAHLIRTACADHDRWITAAAAQDLIAQDGYLSVFQDAAMFDSLASDLERLRQSYGVEATAMSGPQLCKMEPLYQRPPVGGIHWRDVWSCAAPGELVARYAALFQSRGGEICTGDASTLRPEGSAWALMSEAGRLHGEHAVIALGPWTPPILAQLGYRVRMIMKHGAHRMYPTGPKLRRPVHDAQHGIVLSSMKGGLRMTCGVALEASGRVPDARQLDRGAKGLAAYMDLGTAEGGPIWHGTRPFLPDMLPMVGAAPRHDRLWFHFGHGHQGFTLGPTTARHLGALIDGGDSAGIAALLPQNRPAVLS	not soluble
MAHHHHHHAYLPPNMAERLQMSSSSTEPTTTSSMLPAPHSSANMRHIEGLVVVPGVVKVSRSDVASQYTMPHTNNAPLLFSEPEHRAVDNSSGSNDAQLEPKDPHLGLMPHCLSCTLLTSAGAQEPDDVYGRSMPSSSAVGAVTTELECAVVPTLHASFTPGVSTSIMPAPTEAHSACGSRPLQQPRWGGNYDSGSQCVSFRGADRSNNVSGCGLRLVGDDVEWLQGSFEDSASSPREEVQLSWGHLQRQPCAGKSSAARAVPPALHDVREGTGGEKVLAAHHRFERAVQPQTQRQGVFPSADQENCQAAAMLWAAQQMAVFD	soluble
GPGSMVACTRLRRTQKVAKQKTETASNSHPRTSFLRRGRSTDCDIGALHVAATRVTLSVSHYATLLEGSVICVCFGFRLAAAAATNQLASSRLYRVPFAPLTSGLTNEKVLLRWSVAMSRKDAERKLTEDDCLTSSQQYDPQLIFYVPLRRKGYQAIDASAFVRCGGLRVVDISGNRLSTLSGLESVAPQLTFLNAAENSLHDIGALVTCAALERCMLEGNKLASVDSLQPLVSLPCLAELVLQRHVPLDDAAIGSGSPEQSSDKLLLLDNPVCRDAVAYREHFLAKMSHVRWVDGVSTYLRASSLAESTTTESHDAKENSTKAIVDAAIRSFQSIRVQMTATVSEETTLRHQLERAADRCKPSTVTVAARTP	not soluble
GPGSMLASSSLVSVKRTLRIKVGTSTSERLRAAELDEPTTSSARPPPSAMDLSYITGKMPDTLPAYQTERAVWSATTFRSAWNKLHKAYASFLETDPERAAELRAKDWQGLALYNSYAETLHLMSLLPATLRTAITQHSSFDYTEVEELFVHLGQDVEVRGSGGWVIQLPPPTTADLQYLVKHIGRFGADGRGCVANTAHRASVWRGRHGEALGVTLRVGRYVPGAARALLPLAQRGSLLILSKAGMGKTTLLRDLAAALAQEPGTPRVTVVDTSNEIGGDGPIPLPYLGRCRRIQVAQRQDQGRVMMEVIQNHTPEYLIVDEIATEEEAEAAWSISQRGVHLIGTCHGEHLEGLLQNRALNLLVGGAAQAFLSNEERRLRNKMKKTVLERPYSSPFSFVVELHARNLGHLYVDVNKAVDLVLDEQPAQLNGAVGAAVELSALLPSRVEKLLRLHDERKRKLKYVAGTGTNDAEVGEEDDETATFSSAARGTVDEDGYTLLADDGGDPESKRSIAPSTYAAPNHASGRRPHWQAEKQRRHRKTDDELYGELKGSF	not soluble
SNAMKVKIYTRNGCPYCVWAKQWFEENNIAFDETIIDDYAQRSKFYDEMNQSGKVIFPISTVPQIFIDDEHIGGFTELKANADKILNKK	soluble
MSSTLRFHVLGRGAALPRAVAPYFVLRTDNWDDFGHRVQFHLILIVSGAPEKRIGSLKVLQRTSDKGEAMMVATDTELPSKFVELDDTFVSLGQDDDFYKKLHEALGDRAGEVLDALRDIAWRPAFASDFEPTPAFRNAMMRENGAQRARRFGRAWALGEQITERPAFDYVGTIEGADIKVEGEFDFSATDPVPGRIVGLIGRNAVGKTRYLASLGSDLAQISRRSAEALEAREARFPGGRPLFTRIIAISYSAFDRFKRPPMDSSSSYVYCGIRNDRGGLSRSALIDRYRLNQVRIRERGEQRSWMRHMKTILGDQGAQLTASLEEEIRSDSTDDSALSSLSSGQSILAHFVTALLAWIQPNSLVLFDEPETHLHPNAVASLFLVLSQVLQEFDSYAVIATHSPVVIQEIPAKRVLVFRREGNVTIAEPLLLESFGESVTELTRHVFETGEVESLYKRTLRELAAEDTVEDVLARFELGLSLSAQAYLLAQYSKKAGGRTLEHHHHHH	not soluble
GPMELAHREYQAGDFEAAERHCMQLWRQEPDNTGVLLLLSSIHFQCRRLDRSAHFSTLAIKQNPLLAEAYSNLGNVYKERGQLQEAIEHYRHALRLKPDFIDGYINLAAALVAAGDMEGAVQAYVSALQYNPDLYCVRSDLGNLLKALGRLEEAKACYLKAIETQPNFAVAWSNLGCVFNAQGEIWLAIHHFEKAVTLDPNFLDAYINLGNVLKEARIFDRAVAAYLRALSLSPNHAVVHGNLACVYYEQGLIDLAIDTYRRAIELQPHFPDAYCNLANALKEKGSVAEAEDCYNTALRLCPTHADSLNNLANIKREQGNIEEAVRLYRKALEVFPEFAAAHSNLASVLQQQGKLQEALMHYKEAIRISPTFADAYSNMGNTLKEMQD	soluble
MFGFGGFTRDLGIDLGTANTLVYVKGKGVVLREPSVVALQTDTKQIVAVGSDAKQMIGRTPGNVVALRPMKDGVIADYETTATMMKYYIQQAQKSNGFFSRKPYVMVCVPSGITAVERRAVIDATRQAGARDAYPIEEPFAAAIGANLPVWEPTGSMVVDIGGGTTEVAIISLGGIVTSQSVRVAGDDMDDSIIQYIKKSYNLMIGERTAEALKLEIGSAGEPEGIEPMEIRGRDLVSGLPKTVLIQPEEIADALKDTVDAIVESVKNTLEKTPPELAADIMDRGIVLTGGGALLRNLDKVISEETNMPVLVAEDPLDCVAIGTGKALDNIDLFKTAAR	not soluble
MGSDKIHHHHHHMSQLLRKPERAEISKGVTLVHDVTADNASLEYVSFKALDLSQGATYSETLENKECCIVVVTGKVHVTDHEVTFENIGTRESVFEKKPTDSVYVSNNQTFSIEAVTGARVALCYAPSKNQLPTKLIKAEDNGVEHRGKGNNQRMVHNILPDSDPSANSLLVVEVFTESGNWSSYPPHKHDRDLLPEESLLEETYYHEVNPKQGFVFQRVYTDDRSLDETMTVENENMVIVPKGYHPVGVPEGYASYYLNVMAGPKRIWKFFNDPAHEWIIE	not soluble
MTQIGLYPSALTKPFELSLSAIKSVLEPENPSYSKRVPNCQKCGQHGRKSRLKGHKRSCPFRECPCAKVCVFSNKRSSRVSLE	not soluble
